The EC50 is the concentration needed to bring the measured effect to its halfway point.

The record followed here is patent US20120269817A1 (Bayer, published 2012).

Assay [1] has as its target T1, human tissue factor pathway inhibitor (TFPI) (human, UniProt P10646 29-304, limits assumed).
T1 construct: Bought protein; also called human TFPI; hTFPI
T1 sequence (looked up): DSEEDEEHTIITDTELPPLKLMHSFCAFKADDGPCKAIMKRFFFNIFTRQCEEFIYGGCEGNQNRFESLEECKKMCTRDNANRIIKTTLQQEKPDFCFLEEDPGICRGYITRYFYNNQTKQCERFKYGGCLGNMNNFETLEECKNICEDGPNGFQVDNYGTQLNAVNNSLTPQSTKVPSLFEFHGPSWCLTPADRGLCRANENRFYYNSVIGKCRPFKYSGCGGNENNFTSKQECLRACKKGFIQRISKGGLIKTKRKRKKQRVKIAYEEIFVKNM
Nature of the assay: ELISA, IgG against Fab. A general note: ELISA stands for enzyme-linked immunosorbent assay.

In assay [2] the target is T2, mouse tissue factor pathway inhibitor (TFPI) (mouse, UniProt O54819 29-289, limits assumed).
T2 construct: Bought protein; also called mouse TFPI; mTFPI
T2 sequence (looked up): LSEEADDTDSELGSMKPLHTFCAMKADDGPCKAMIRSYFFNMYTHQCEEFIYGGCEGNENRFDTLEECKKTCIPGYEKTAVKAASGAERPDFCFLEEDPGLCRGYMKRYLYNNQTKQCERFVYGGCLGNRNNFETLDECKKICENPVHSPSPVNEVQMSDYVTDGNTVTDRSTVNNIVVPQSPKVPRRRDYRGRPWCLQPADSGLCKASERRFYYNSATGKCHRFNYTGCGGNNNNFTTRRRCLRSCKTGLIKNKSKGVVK
Kind of assay: ELISA, IgG against Fab.

For a further assay, the target named is T3, human TFPI K1 (human, UniProt P10646 29-107, limits assumed).
T3 construct: domain: K1; also called Kunitz domain 1
T3 sequence (looked up): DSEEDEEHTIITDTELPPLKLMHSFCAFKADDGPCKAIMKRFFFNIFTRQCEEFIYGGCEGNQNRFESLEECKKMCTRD
Nature of the assay: Western blots and ELISA. Here is the method:
Western blots and ELISA were used to determine which domain(s) of TFPI of the inhibitory antibodies bind. Recombinant full length human TFPI or TFPI domains were used for these studies. ELISA was similar to Example 3. In the Western Blot, human TFPI or domains were run on 4-12% Bis-Tris SDS PAGE running buffer MES (Invitrogen, Carlsbad, Calif.) and then transferred to cellulose membrane. After incubation with inhibitory antibodies for 10 min, the membrane was washed three times using SNAPid system (Millipore, Billerica, Mass.). A HRP conjugated donkey anti-mouse antibody (Pierce, Rockford, Ill.) at 1 to 10,000 dilution was incubated with the membrane for 10 min. After a similar wash step, the membrane was developed using SuperSignal substrate (Pierce, Rockford, Ill.). Whereas the control anti-Kunitz domain 1 antibody binds to full length TFPI, truncated TFPI and domains, inhibitory anti-TFPI antibodies only bind to TFPI containing Kunitz domain 2.
On the technique in general: A western blot detects proteins with antibodies after separation by electrophoresis.

Assay [3] deals with T1, human tissue factor pathway inhibitor …. Kind of assay: ELISA, IgG on coated human TFPI.
Assay [4] concerns the target T2, mouse tissue factor pathway inhibitor …. Nature of the assay: ELISA, IgG on coated mouse TFPI.

B1: 2G6-IgG (antibody, V domains shown)
VH: QVQLQQSGPGLVKPSQTLSLTCAISGDSVSSSSAAWSWIRQSPGRGLEWLGIIYYRSKWYNDYAVSVKSRITINPDTSKNQFSLQLNSVTPEDTAVYYCARHSMVGFDVWGQGTLVTVSS
VL: DIVLTQSPATLSLSPGERATLSCRASQYVTSSYLAWYQQKPGQAPRLLIYGSSRATGVPARFSGSGSGTDFTLTISSLEPEDFATYYCQQYSSSPITFGQGTKVEIKR
notes: Chimeric IgG: human variable regions on mouse constant regions, murine IgG1 isotype, made in HKB11 cells; also called IgG-2G6; TP-2G6 chimeric IgG
For the molecule B1, the “fold change of EC50 against 2G6-Fab” value came to 2 fold in assay [1] and 10 fold in assay [2]. The binding result with human TFPI K1 was “no binding”. In addition, the half-maximal effective concentration (EC50) in assay [3] was determined as 0.22 nM; in assay [4], 0.51 nM.
